Measurements as given in patent US20220144922A1 (Adimab, published 2022).

What was measured:
[1] = target: T1, prefusion-stabilized RSV F ectodomain (DS-Cav1), subtype B (respiratory syncytial virus subtype B); experiment: BLI, IgG on sensor
T1 construct: extracellular domain; also called Prefusion subtype B
Protocol: IgG binding to DS-Cav1 and FA FP was determined by BLI measurements using a FortéBio Octet HTX instrument (Pall Life Sciences). […] Data was analyzed using the ForteBio Data Analysis Software 7. The data was fit to a 1:1 binding model to calculate an association and dissociation rate, and KD was calculated using the ratio kd/kₐ.

[2] = target: RSV F protein of subtype A strain A2, on virus (respiratory syncytial virus subtype A …, UniProt P03420 26-574); experiment: cell-based or functional assay
[3] = target: RSV F protein of subtype B strain 18537, on virus (respiratory syncytial virus subtype B …, UniProt P13843 26-574); experiment: cell-based or functional assay

Row | Binder | Kd [1] [nM] | Neut IC50 (ug/ml) subtype A [2] [µg/mL] | Neut IC50 (ug/ml) subtype B [3] [µg/mL]
1 | ADI-15638 (antibody, V domains shown, IgG) VH: EVQLVESGGGLVKPGGSLRLSCAASGFTITSYGMNWVRQAPGKGLEWVSSISSSSSFIHYGDSVKGRFTISRDNAKNSLYLQMNSLRAGDTAVYYCVRDSGHQDYRGDYWGQGTLVTVSS VL: QSVVTQPPSVSGAPGQRVSISCTGSSSNIGAGYDVHWYQQLPGTAPKLLIYTNNNRPSGVPDRFSGSKSGTSASLAINGLQAEDEADYYCQSYDRSLSGWVFGGGTKLTVL | 0.402 | 0.178 | > 10
2 | ADI-15649 (antibody, V domains shown, IgG) VH: EVQLVESGGGLVKPGGSLRLSCAAPGFTIRSYTMYWVRQAPGKGLEWVASISSSSSYIHYGDSVKGRFTIARDNAKNSLYLQMNSLRAEDTAVYYCVRDHCTGGSCYLNGMDVWGQGTTVTVSS VL: QPVLTQPPSVSGAPGQRVTISCTGTSSNIGAGYDVHWYQQLPGTAPKLLIYGNNNRPSGVPDRFSGSKSGTSASLAITGLQAEDEADYYCQSYDSSLSGSVFGGGTKLTVL | 0.329 | > 10 | 2.19
3 | ADI-15563 (antibody, V domains shown, IgG) VH: EVQLVESGGGLVQPGRSLRLSCAASGFTFDDYAMHWVRQAPGKGLEWVSGISWNSGIVKYADSVKGRFTISRDNAKNSLYLQMNSLRTEDTALYYCVKDGYTSSWHSDYHYGLDVWGQGTTVTVSS VL: DIVMTQSPATLSLSPGDRATLSCRASQNVISNLAWYQQKPGQAPRLLIYTVSTRATGIPARFSGSGSGTDFTLTISSLQSEDFAVYYCQQYNNWPLTFGGGTKVEIK | 2.2 | 0.014 | 0.047
4 | ADI-15586 (antibody, V domains shown, IgG; also called Antibody Number 153) VH: EVQLVESGGGVVQPGKSLRLSCAASGFIFSGYGMHWVRQAPGKGLEWVAFIWFDGSSTYYADSVKGRFTISKDDSKQTVYLQMNRLRAEDTAVYYCARDPLFLYNYNDEPFDYWGQGTLVTVSS VL: SYELTQPPSASGSPGQSVTISCSGSSSNIGGNFVYWYQQLPGTAPKVLIYRNNQRPSGVPDRFSGSKSGTSASLAISGLRSDDEADYYCSVWDDSLNGRLFGGGTKLTVL | 5.78 | > 10 | 1.02
5 | ADI-15656 (antibody, V domains shown, IgG; also called Antibody Number 220) VH: QVQLVQSGAEVKKPGASVKVSCKASGYTFTDYYMHWVRQAPGQGLEWVGWINPNSGSTNYAQKFQGRVTVTRDTSISTAYMDLSRLRSDDTAVYYCASRSWDHDAFDIWGQGTMVTVSS VL: QSVLTQPPSVSGAPGQRVTISCTGSSSNIGAGYDVHWYQQLPGRAPKLLIFGNSNRPSGVPDRFSGSKSGTSASLAITGLQPEDEADYYCHCYDSRLSVVFGGGTKLTVL | 6.13 | > 10 | 0.021
6 | ADI-15569 (antibody, V domains shown, IgG) VH: EVQLVESGAEVKKPGASVKVSCKASGYTFANYGITWVRQAPGQGLEYMGWISAYNGNTNYAQKFQGRVTMTTDTSTSTAYMELRSLRSDDTAIYYCARDPGVTAAVLLDYWGQGALVTVSS VL: DIVLTQSPLSLPVTLGQPASISCRSSQSLVFSDGNTYLSWFQQRPGQSPRRLLYKVSNRDSGVPDRFSGSGSGTDFTLTISRVEAEDVGVYYCLQGTPPYTFGQGTKVDIK | 0.25 | 0.006 | 0.035
7 | ADI-15564 (antibody, V domains shown, IgG) VH: QVQLVQSGAEVKKPGSSVKVSCKASGDTFNSYSISWVRQAPGQGLEWMGGILPMFGSSDYAQKFQGRLTITADESTRTAYMELNSLTSEDTAIYYCARDNYYVWTGRYPEFDFWGQGTLVTVSS VL: EIVLTQSPGTLSLSPGDEATLSCRASQSVTSNYLAWYQQRPGQAPRLLISGASRRATAVPDRFSGSGSGTDFTLTISRLEPEDFAVYYCQQYGSTPITFGQGTRLEIK | 0.64 | 0.011 | 0.016
8 | ADI-15565 (antibody, V domains shown, IgG) VH: QVQLVQSGAEVKKPGASVKVSCKASGYTFTNDINWVRQATGQGLEWMGWMNPNNGHTGYAQSFEGRVSMTRNSAINTAYLELSSLRFDDTAIYYCVYNFWSDSSVSWGQGTLVTVSS VL: QSVVTQPPSVSGAPGQSVAISCTGSSSNIGPGYDVHWYQQLPGAAPKLLIYGDSNRPSGVPDRFSTSKSGTSVSLAITGLQAEDEADYYCQSYDSSLRGYVFGTGTKLTVL | 6.76 | 21.3 | 6.25
9 | ADI-15575 (antibody, V domains shown, IgG) VH: QVQLVQSGAEVKKPGASLMVSCSASGYIFNSDINWVRQAPGQGLEWMGWMNPKNGHTGYAQEFEGRVSMTRNSSKTIAYLQLSSLTYEDTAVYYCVYDFWSDDSVKWGRGTLVTVSS VL: QSVVTQPPSVSGAPGQSVAISCSGSSSNIGPGYDVHWYQQLPGSAPKLLIYGDNNRPSGVPERFSTSKSGTSASLAITGLQAEDEADYYCQSFDSSLRGYVFGTGTKVTVL | 4.16 | > 10 | 1.47
10 | ADI-15566 (antibody, V domains shown, IgG) VH: QVQLVQSGAEVKKPGASVKVSCKASGFTFTNYGISWVRQAPGRGLEWMGWISAYNGNTEYAQKLQDRLTMTTDTSTNTAYMELRSLRSDDTALYYCARESGVAAAATLLYWGQGTLVTVSS VL: ETTLTQSPLSLPVTLGQPASISCRSSQSLVYSDGNTYLSWFQQRPGQSPRRLIYKVSNRDSGVPDRFSGSGSGADFTLKISRVEAEDVGVYYCMQGIYWPRTFGQGTKVDIK | 0.264 | 0.01 | 0.043
11 | ADI-15642 (antibody, V domains shown, IgG; also called Antibody Number 206) VH: EVQLVESGGGLIQPGGSLRLSCAASGFTVSSKYMSWVRQAPGKGLEWVSIIYSGGSTYHADSVKGRFTISRDNSKNTLYLQMNSLRAEDTAVYYCARDDYDFWSGNGPPEMAVWGQGTTVTVSS VL: DIRMTQSPSSLSASVGDRVTITCRASQGISNYLAWYQQKPGKVPKLLIYAASTLQSGVPSRFSGSGSETDFTLTISSLQPEDVATYYCQKYNSVPLTFGQGTKVEIK | 2.81 | 0.499 | 0.005
12 | ADI-15650 (antibody, V domains shown, IgG; also called Antibody Number 214) VH: EVQLVESGGGLIQPGGSLRLSCAASGFTVSSKYMSWVRQAPGKGLEWVSIIYSGGSTYYADSVKGRFTISRDNSKNTLYLQMNSLRAEDTAVYYCARDDYDFWSGNGPPEMAVWGQGTTVTVSS VL: DMRLTQSPSSLSASVGDRVTITCRASQGISNYLAWYQQRPGKVPQLLIYTASTLQSGVPSRFSGSGSETDFTLTISSLQPEDVATYYCQKYDSVPLTFGQGTKVEIK | 3.52 | 8.3 | 0.016
13 | ADI-15568 (antibody, V domains shown, IgG) VH: QVQLVESGAEVQKPGASVKISCKASGYKFISYSIHWVRQAPGQGLEWMGVINPGGGLTNYAQKFQDRLTMTRDTSTATVTMELRSLRSDDRAVYFCGREDSYCSGDSCFNSGSGRWVDSWGQGTLVTVSS VL: DIQVTQSPSSLSASVGDRVTITCRASQSVITYLNWYQQKPGKAPQLLVYAASILQSGVPSSFSGSGSGTDFTLTISSLQPEDFATYYCQQTYSTPHTFGQGTKVDIK | 0.699 | 0.016 | 0.033
14 | ADI-15655 (antibody, V domains shown, IgG) VH: EVQLVESGGGVVQPGRSLRLSCAASGFTFSSYAMHWVRQAPGKGLEWVAVISYDEGNEYYADSVKGRFTISRANSKNTIYLQMNSLRAEDTAVYYCARDYIHGDYGLDVWGLGTTVTVSS VL: not shown | 8.58 | > 10 | > 10
15 | ADI-15583 (antibody, V domains shown, IgG) VH: QVQLVQSGAEVKKPGESLKISCKTSGYKFTNYWIGWVRQMPGKGLEWMGIIYPGDSDARYSPSFQGQVTFSADKSISTAYLQWSSLKASDTAMYYCARQDNSGWADFFPFDYWGQGTLVTVSS VL: ETTLTQSPGTLSLSPGERATLSCRASHSFSSSYLAWYQQKPGQAPRLLIYAASNRATGIPDRFSGSGSGTDFTLTISRLEPEDFAVYFCQQYDSSPWTFGQGTKVEIK | 0.351 | 0.443 | 0.377
16 | ADI-15643 (antibody, V domains shown, IgG) VH: QVQLVQSGAEVKKPGESLKISCKTSGYRFTNYWIGWVRQMPGKGLEWMGIIYPGDSDARYSPSFQGQVTFSADKSISTAYLHWSSLKASDTAMYYCARQDDSGWADFFPFDYWGQGTLVTVSS VL: EIVLTQSPGTLSLSPGERATLSCRASHSFSSTYLAWYQQKPGQAPRLLIYAASNRATGIPDRFSGSGSGTDFTLTISRLEPEDFAVYFCQQYDSSPWTFGQGTKLEIK | 0.162 | 0.039 | 0.115
17 | ADI-15571 (antibody, V domains shown, IgG) VH: QVQLVQSGAEVKKPGASVKVSCKASGYSFTDYYIHWVRQAPGQGLEWIGWINPNSGGTTFAQNFQGRVTMTRDTSISTAFLELSRLKSDDTAVYYCARDVLWLNGFWGLGTLVTVSS VL: QSVVTQPPSVSAAPGQKVTISCSGSSSNIGNNYVSWYQQFRGTAPKVLIYENNKRTSGIPDRFSGSKSGTSATLGITGLQTGDEADYYCGTWDSSLSTGPYVVFGGGTKLTVL | 25.7 | 0.541 | 0.43
